From patent publication US20220112244A1 (DOMPE FARMACEUTICI S P A, published 2022) come the findings set out here.

Some results are limits rather than exact numbers.

For this test, the target named is IL-17A (agonist in the IL-17RA/IL17RC dimerization assay) (UniProt Q16552 24-155). The experiment in a line: cell-based or functional assay.
Chain of IL-17A (agonist in the IL-17RA/IL17RC dimerization assay) (Q16552 24-155 limits assumed): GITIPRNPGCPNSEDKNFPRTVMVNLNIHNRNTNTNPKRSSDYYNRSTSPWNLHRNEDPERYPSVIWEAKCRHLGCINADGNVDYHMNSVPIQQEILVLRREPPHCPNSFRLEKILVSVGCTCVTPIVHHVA

On to Ac-IHVTAPADLWDWINK-NH2 [peptide of SEQ ID NO: 179], for which the “IC50 in IL-17RA/IL7RC dimerization assay” value was less than 10 µM.

On to Ac-IHVSIPADLWDWINK-NH2 [peptide of SEQ ID NO: 175], for which the “IC50 in IL-17RA/IL7RC dimerization assay” value is less than 10 µM.

Turning to Ac-IHVTYPADLWDWINK-NH2 [peptide of SEQ ID NO: 185], the “IC50 in IL-17RA/IL7RC dimerization assay” value was less than 10 µM.

Ac-IQVTIPADLWDWINK-NH2 [peptide of SEQ ID NO: 165]: the “IC50 in IL-17RA/IL7RC dimerization assay” value is less than 10 µM.

Ac-IHGTIPADLWDWINK-NH2 [peptide of SEQ ID NO: 168]: the “IC50 in IL-17RA/IL7RC dimerization assay” value was less than 10 µM.

In the case of Ac-IHVTIPADLWDWIEK-NH2 [peptide of SEQ ID NO: 11], the “IC50 in IL-17RA/IL7RC dimerization assay” value was less than 0.4 µM.

Take Ac-IYVTIPADLWDWINK-NH2 [peptide of SEQ ID NO: 166]: the “IC50 in IL-17RA/IL7RC dimerization assay” value was less than 10 µM.

With Ac-IHYTIPADLWDWINK-NH2 [peptide of SEQ ID NO: 172], the “IC50 in IL-17RA/IL7RC dimerization assay” value is less than 10 µM.

In the case of Ac-IHVTFPADLWDWINK-NH2 [peptide of SEQ ID NO: 184], the “IC50 in IL-17RA/IL7RC dimerization assay” value is less than 10 µM.

For Ac-IHLTIPADLWDWINK-NH2 [peptide of SEQ ID NO: 169], the “IC50 in IL-17RA/IL7RC dimerization assay” value was less than 10 µM.

In the case of Ac-IHFTIPADLWDWINK-NH2 [peptide of SEQ ID NO: 174], the “IC50 in IL-17RA/IL7RC dimerization assay” value is less than 10 µM.

Turning to Ac-IHVTLPADLWDWINK-NH2 [peptide of SEQ ID NO: 181], the “IC50 in IL-17RA/IL7RC dimerization assay” value is less than 10 µM.

In the case of Ac-IHVQIPADLWDWINK-NH2 [peptide of SEQ ID NO: 178], the “IC50 in IL-17RA/IL7RC dimerization assay” value was less than 10 µM.

On to Ac-IHWTIPADLWDWINK-NH2 [peptide of SEQ ID NO: 173], for which the “IC50 in IL-17RA/IL7RC dimerization assay” value was less than 10 µM.

As to Ac-IEVTIPADLWDWINK-NH2 [peptide of SEQ ID NO: 164], the “IC50 in IL-17RA/IL7RC dimerization assay” value was less than 10 µM.

Take Ac-IHATIPADLWDWINK-NH2 [peptide of SEQ ID NO: 167]: the “IC50 in IL-17RA/IL7RC dimerization assay” value was less than 10 µM.

Turning to Ac-IHVTVPADLWDWINK-NH2 [peptide of SEQ ID NO: 183], the “IC50 in IL-17RA/IL7RC dimerization assay” value is less than 10 µM.

Ac-IHITIPADLWDWINK-NH2 [peptide of SEQ ID NO: 171]: the “IC50 in IL-17RA/IL7RC dimerization assay” value was less than 10 µM.

Ac-IHVTGPADLWDWINK-NH2 [peptide of SEQ ID NO: 180]: the “IC50 in IL-17RA/IL7RC dimerization assay” value is less than 10 µM.

Regarding Ac-IHVTIGADLWDWINK-NH2 [peptide of SEQ ID NO: 187], the “IC50 in IL-17RA/IL7RC dimerization assay” value was less than 10 µM.

Consider Ac-IHVYIPADLWDWINK-NH2 [peptide of SEQ ID NO: 176], for which the “IC50 in IL-17RA/IL7RC dimerization assay” value is less than 10 µM.

In the case of Ac-IHVNIPADLWDWINK-NH2 [peptide of SEQ ID NO: 177], the “IC50 in IL-17RA/IL7RC dimerization assay” value is less than 10 µM.

Take Ac-IHPTIPADLWDWINK-NH2 [peptide of SEQ ID NO: 170]: the “IC50 in IL-17RA/IL7RC dimerization assay” value is less than 10 µM.
